The source of these data is article PMC5767323, “Differential NtcA Responsiveness to 2-Oxoglutarate Underlies the Diversity of C/N Balance Regulation in Prochlorococcus” (Frontiers in Microbiology, 2018).

Series [1] concerns the target T1, NtcA (Prochlorococcus marinus, UniProt Q7VDU1).
T1 construct: recombinant His6-tagged NtcA (pET-15b)
T1 sequence (Q7VDU1 1-244): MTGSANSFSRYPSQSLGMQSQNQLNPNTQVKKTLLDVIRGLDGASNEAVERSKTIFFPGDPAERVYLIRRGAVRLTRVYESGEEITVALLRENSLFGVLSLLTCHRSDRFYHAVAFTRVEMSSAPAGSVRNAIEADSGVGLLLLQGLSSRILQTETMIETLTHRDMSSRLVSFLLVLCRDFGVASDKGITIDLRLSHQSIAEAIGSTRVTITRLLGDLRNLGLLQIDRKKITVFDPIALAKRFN
Briefly: ITC of NtcA-dsDNA at varied 2OG, ternary equilibrium fit; supported by SPR and EMSA. It is filed as binding. For orientation: A gel shift assay detects complexes by their altered migration in electrophoresis.

Series [2] concerns the target T2, NtcA (Prochlorococcus marinus, UniProt Q7TUG3).
T2 construct: recombinant His6-tagged NtcA (pET-15b)
T2 sequence (Q7TUG3 1-244): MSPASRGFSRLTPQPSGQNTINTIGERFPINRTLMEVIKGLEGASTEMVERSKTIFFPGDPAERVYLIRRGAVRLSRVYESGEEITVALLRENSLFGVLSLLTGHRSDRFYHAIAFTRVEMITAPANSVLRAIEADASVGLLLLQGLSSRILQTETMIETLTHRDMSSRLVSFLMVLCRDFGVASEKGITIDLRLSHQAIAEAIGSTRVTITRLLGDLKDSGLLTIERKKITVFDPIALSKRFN
Briefly: ITC of NtcA-dsDNA at varied 2OG, ternary equilibrium fit. It is filed as binding.

Series [3] has as its target T3, NtcA (Prochlorococcus marinus, UniProt Q7TUN1).
T3 construct: recombinant His6-tagged NtcA (pET-15b)
T3 sequence (Q7TUN1 1-222): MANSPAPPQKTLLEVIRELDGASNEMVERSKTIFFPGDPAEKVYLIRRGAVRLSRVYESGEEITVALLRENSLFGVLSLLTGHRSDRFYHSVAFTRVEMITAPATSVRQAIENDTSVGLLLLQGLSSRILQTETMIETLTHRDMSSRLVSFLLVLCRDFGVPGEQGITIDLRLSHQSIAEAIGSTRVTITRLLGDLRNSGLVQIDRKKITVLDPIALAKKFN
Description: ITC of NtcA-dsDNA at varied 2OG, ternary equilibrium fit; supported by SPR and EMSA. It is filed as binding.

Series [4] deals with T4, NtcA SS120 (Prochlorococcus sp. SS120) (UniProt Q7VDU1).
T4 sequence: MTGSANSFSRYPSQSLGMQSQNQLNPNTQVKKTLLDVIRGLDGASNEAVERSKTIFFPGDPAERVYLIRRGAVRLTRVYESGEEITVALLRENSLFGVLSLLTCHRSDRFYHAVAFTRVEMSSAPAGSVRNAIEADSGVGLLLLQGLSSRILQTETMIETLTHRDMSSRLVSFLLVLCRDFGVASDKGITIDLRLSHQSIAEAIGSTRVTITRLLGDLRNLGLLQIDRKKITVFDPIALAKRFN
Briefly: ITC. As to conditions: ITC: 50 mM Hepes, 350 mM NaCl, pH 7.5, 25 C, 0-10 mM 2OG, SPR: Biacore X, CM5 with neutravidin, buffer not given, EMSA: as Napolitano et al. 2012, 1 uM ….

In a further series the target is T5, NtcA SS120 (Prochlorococcus sp. SS120, UniProt Q7VDU1 1-244).
T5 sequence: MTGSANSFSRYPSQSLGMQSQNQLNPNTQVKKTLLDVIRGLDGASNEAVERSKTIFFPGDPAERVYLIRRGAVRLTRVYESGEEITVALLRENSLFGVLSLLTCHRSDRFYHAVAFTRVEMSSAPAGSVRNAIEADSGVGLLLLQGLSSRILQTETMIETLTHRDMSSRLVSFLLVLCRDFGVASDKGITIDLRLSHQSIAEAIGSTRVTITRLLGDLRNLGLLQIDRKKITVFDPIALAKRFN
Briefly: ITC; saturating 2OG (Kd,eff = Kd/alpha, extrapolated from fit); ITC: 50 mM Hepes, 350 mM NaCl, pH 7.5, 25 C, 0-10 mM 2OG; SPR: Biacore X, CM5 with neutravidin, 25 C, buffer not given; EMSA: as Napolitano et al. 2012, 1 uM NtcA. The conditions noted are these: protein: recombinant; tags: His6 (pET-15b); chain copies: 2; blunt.

For series [5], the target named is T6, NtcA MED4 (Prochlorococcus sp. MED4, UniProt Q7TUG3 1-244).
T6 sequence: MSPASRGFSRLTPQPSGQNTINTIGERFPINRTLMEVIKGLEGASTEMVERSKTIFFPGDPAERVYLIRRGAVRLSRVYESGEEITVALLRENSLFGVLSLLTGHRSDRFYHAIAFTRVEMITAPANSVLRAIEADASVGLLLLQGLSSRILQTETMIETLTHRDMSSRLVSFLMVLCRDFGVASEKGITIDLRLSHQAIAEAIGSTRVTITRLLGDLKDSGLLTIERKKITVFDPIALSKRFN
The description is as above. The conditions noted are these: protein: recombinant; tags: His6 (pET-15b); chain copies: 2; blunt.

Series [6] has as its target T6, NtcA MED4. Description: ITC; independent of 2OG; ITC: 50 mM Hepes, 350 mM NaCl, pH 7.5, 25 C, 0-10 mM 2OG; SPR: Biacore X, CM5 with neutravidin, 25 C, buffer not given; EMSA: as Napolitano et al. 2012, 1 uM NtcA. As to conditions: protein: recombinant; tags: His6 (pET-15b); chain copies: 2; blunt. A general note: In ITC the heat of successive injections is recorded.

A further series deals with T7, NtcA MIT9313 (Prochlorococcus sp. MIT9313, UniProt Q7TUN1 1-222).
T7 sequence: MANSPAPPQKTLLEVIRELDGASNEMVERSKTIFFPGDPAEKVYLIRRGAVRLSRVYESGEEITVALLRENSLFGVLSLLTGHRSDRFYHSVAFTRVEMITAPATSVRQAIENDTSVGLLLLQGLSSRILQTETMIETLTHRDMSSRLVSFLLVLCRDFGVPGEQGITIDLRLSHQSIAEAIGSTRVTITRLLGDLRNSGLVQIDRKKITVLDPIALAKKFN
Description: ITC; saturating 2OG (Kd,eff = Kd/alpha, extrapolated from fit); ITC: 50 mM Hepes, 350 mM NaCl, pH 7.5, 25 C, 0-10 mM 2OG; SPR: Biacore X, CM5 with neutravidin, 25 C, buffer not given; EMSA: as Napolitano et al. 2012, 1 uM NtcA. As to conditions: protein: recombinant; tags: His6 (pET-15b); chain copies: 2; blunt.

Turning to `O=C(O)CCC(=O)C(=O)O` [2OG, 2-oxoglutarate], the results for the Kd on NtcA [1], on NtcA [2] and at NtcA [3] were 42000 ± 3000 µM, 36000 ± 3000 µM and 19000 ± 2000 µM, respectively.
As for “CCAATAAGCCCCACACGGCATTATTG (double strand) [DNA4, glnA promoter SS120 mutated]”, the Kd (commonly the constant that tells how readily two partners part at equilibrium) in series [4] amounted to 10 µM.

B1: DNA3, glnA promoter SS120 wt (dsDNA)
DNA 1: CCAATAGTCACAAAAAGTACTTATTG
DNA 2: CAATAAGTACTTTTTGTGACTATTGG
As for B1, in the series with NtcA SS120, the Kd is 0.8 ± 0.2 µM.

B2: DNA5, glnA promoter MED4 wt (dsDNA)
DNA 1: AAAAAGTTACCTTTGATACATAAT
DNA 2: ATTATGTATCAAAGGTAACTTTTT
For the molecule B2, in the series with NtcA MED4 [5], the Kd was 0.5 ± 0.1 µM.

B3: DNA6, glnA promoter MED4 mutated (dsDNA)
DNA 1: AAAAACTAACCTTTGACTGATAAT
DNA 2: ATTATCAGTCAAAGGTTAGTTTTT
Take B3: the Kd with NtcA MED4 [6] amounted to 9.5 ± 0.9 µM.

B4: DNA1, glnA promoter MIT9313 wt (dsDNA)
DNA 1: TAGAAGGTACCTGTTGCTACAAAAAG
DNA 2: CTTTTTGTAGCAACAGGTACCTTCTA
Regarding B4, in the series with NtcA MIT9313, the Kd is 0.06 ± 0.01 µM.
